Data from the supplement of paper PMC12764529.
± gives the half width of the 95% confidence interval.

experiment: folding stability dG unfold from trypsin proteolysis; higher = more stable
In short: (§1)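 How resistant each design was to proteolysis was captured as K50, inferred by Bayesian fitting of sequencing counts. Unfolding free energy was then derived relative to a sequence-predicted unfolded-state K50 and a shared folded-state K50, per protease or combined. Digestion used trypsin and chymotrypsin at 11 threefold-diluted concentrations plus a no-protease condition, on mini-proteins under 80 residues without cysteine in a PA-tagged cDNA display construct. Designs were kept only when AlphaFold2 dimer inter-PAE was above 15.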

Sequence	folding stability dG unfold [kcal/mol]
SAGGSAGGSRKIPIWIPPGMPPEQLEHFVRFIAGENGWKIKSVEIKDVDPANNWVKIDIEVKWSAGGSAGGS [r12_168_TrROS]	2.16 ± 0.094
SAGGPEIRLRVRRPVRLTRRELLPDGTWRTLPARPGYEELEITFTGPEETARRLREELERLGYEVEEVSAGG [r13_452_TrMRF]	1.76 ± 0.056
SAGMIDYIEIKPEKLPNGKYKVTITIYDSSTGTTTTYEKEMTPEEAKELAEKIKESNPDKPVKFGNLESAGG [r19_317_JUSTAS]	2.06 ± 0.093
SAGGSAGGSAGTIENVTVVGSKEFTAPGGVPTLIEYAKLPDGGTYTVTWTGDTTTTTVFPSAGGSAGGSAGG [r17_294_JUSTAS]	0.414 ± 0.021
SAGGSAGGSAGDAPPGATLTLNIELELTLKVVDPSTGELVEERKLRIPLTLTYVLDDDDLSAGGSAGGSAGG [r11_970_TrMRF]	3.15 ± 0.42
SAGGSAGGSMKTIELPNGMKITVEKDEETGVYTITITFPDGSKKTITVPKGTSLEDLVIEIKPSAGGSAGGS [r12_261_TrROS_Hall]	2.54 ± 0.095
SAGGSAGGSAGGIHIPAYEAIDFAKENADNGEPVPIEVHNPGNGKPEEREITPDDLDKISAGGSAGGSAGGS [r10_779_TrROS]	0.402 ± 0.039
SAMVTIDYETLKELYEAGDPAKVEEILKKAYEEDPNKTITVIVPEDEKYKNLVLEAAKKMGLPITITGPSAG [r14_236_JUSTAS]	2.46 ± 0.068
SAGGMEFTPDQFLIIVLGLPDDTLEVAIIPAGDIEKAFEELGFPLEEVDILEIVEADLTPEEAEELAESAGG [r13_850_TrMRF]	1.81 ± 0.1
SAGGSAGGSAGGSFGAVKARFKVEFVARAEDGSLYPVELEFEVEVPVLPPLPFLHPDLFSAGGSAGGSAGGS [r4_325_TrMRF]	1.86 ± 0.051
SASEDETVETTTTTTSTFTLPNGETVTLTTTTKTTEKILPETGEVVESTTTTTTVTRTDASTTTTVATSSAG [r14_333_JUSTAS]	1.12 ± 0.068
SAGGSAGGSMEEVEVFELEDGTLLVLVRVDGKEELIEIPLDDLKKLPNVKEVKIFPVKKVEKPSAGGSAGGS [r12_343_TrROS_Hall]	0.803 ± 0.052
SAGGSAGWVTFDILFPGKTIEEAKEFIEQIPPEFMNNIKKIEIDEIHPVGGWYHVTLTIEVPPGMKSAGGSA [r15_244_TrROS]	0.743 ± 0.14
SAGGSADLPPEVGSVTYSQNVPLDEIDEFIQEVIEKLGISPEEIKEIKVSRKTVPGSGVVSLTIVLSAGGSA [r15_934_JUSTAS]	1.46 ± 0.061
SAGGKKKKPERVEVTIVLPPEILEAIKAGKPLTKEEIAKLLGLPPGAEIKIERREDGYLVIKITLPKSAGGS [r16_679_TrROS_Hall]	1.61 ± 0.03
SAGSNKPIKLKAIIEKPKEKKEIEIEIDPNESIESALKKILEKLEPEWKIVIELPNGIKIEFPPSKEMYSAG [r5_77_TrMRF]	1.37 ± 0.083
SKVEIEVERLPDGTLLVRATAEIPGIPGEKIELAVLVRLPAPERVEVRLLAAPPVETVTETRTYSEEEKKSA [r9_1009_TrROS_Hall]	1.27 ± 0.12
SAGFEFPPGQEIEFKVQYTSPMPNPDGGWGPVTETYEITIEIVPVPPIPFKDPAQAEELRQKGLPPDDLSAG [r5_624_TrROS]	0.546 ± 0.06
SAGGSAGGSAGGEMRLRISWNHPNGQPQVIEFPVGDIKEFLKKLGIDNIPPDKLTNIEPYSAGGSAGGSAGG [r7_745_TrROS]	1.25 ± 0.039
SAGTLEEALEDPSNETVEIEIEIPTGEYPLSDPEKVEELAEEKKKEIEKKLKEKGKNVKIIFKVSLKPLSAG [r5_408_JUSTAS]	0.366 ± 0.07
SAGGSAGGSAGGSLPFLKAKFTFTVRATVTVTVTDDDGKTTTEEFELETTVTVTLEPKPSAGGSAGGSAGGS [r4_162_TrROS_Hall]	2.88 ± 0.15

Sequence	folding stability dG unfold [kcal/mol]
SAGPPEFELVGEFEAEAPGGVPVRVRVIRLPGGDVLVVVTHPDDTVTLGFIPAETGEWHLALSFPADVLSAG [r5_750_TrMRF]	2.82 ± 0.057
SAGMMVVVELTVGFEPDEIEPEEIREAIEEHAAEVEIDPNPETDILPIRVIAEPGKIEAIVDALKEAGGSAG [r5_378_TrMRF]	1.08 ± 0.069
SAGGSAGGSMTTKTFKLPDGRTVTVTTEKLPNGTTKTTVTITVPGTGKTTTVPASEVPADFSGSAGGSAGGS [r12_797_JUSTAS]	1.24 ± 0.038
SAGGWYERIKEWAKDKGLKVDIEPTSFDPPNGWMPFEIEFPNGKKIDITFPDSPDQMLWMIRNMIKNSAGGS [r16_153_TrROS]	1.63 ± 0.057
SAGYVEPYEDGMVKIDSTFFLNDWVFKVDWWIMPNGNIMISIEPIEPIPPPPPVPIDADDPEQKEEAQQSAG [r5_715_TrROS]	1.69 ± 0.18
SAGMVITLERTIPPTVSVSPEEAVAAIKAELEATPGVTVTAVNSVTVTPLPDGTLRVTVDIVVDRPEPSAGG [r19_396_JUSTAS]	2.23 ± 0.037
SAGGGFDLEFVTPDGRRIRVEVKRILSYDPEKGYLVMEVKVTIYHPDKPIEIDGIIVFPPGFPPGAGGSAGG [r13_823_TrMRF]	3.6 ± 0.13
SSMPTTVTLTNPADSTTTPLPVPSNISVETTTLPDGSTAGTVTVTDPSTGKTTTITFSGPNTLTSTSATSSA [r9_467_JUSTAS]	1.05 ± 0.03
SAGGMSVKIEEKTHPETNEITINVEYDDIEKAKKEIAEKIKKENGNIPVTLVDKNGKPITIPLKELISAGGS [r8_236_JUSTAS]	0.0225 ± 0.087
SAGGSAGGSAGGEDPNLKSKTITKKVEKGKLDSSKNITDSSGNTSIITVENNTITITIVSSAGGSAGGSAGG [r7_97_JUSTAS]	-0.215 ± 0.31
SAAEKLPDGTIVIKLTEEEYKKLTEEEIEKIKEELKKEYPENVTVEIKPTKAKKIPTEPFEKGEKYNESSAG [r14_312_JUSTAS]	-0.313 ± 0.37
SAGGSAGGSKKIMIPGSPDTAFSTIKEWIRNGHEVPIYYYSPGNPEPVAEQEITIDEEENDELSAGGSAGGS [r12_241_TrROS]	-0.683 ± 0.3
SAGGPNWYLKVKIEHRYPNPDNGKWQERRMEVIIPFKDPDQLPPNALKKLIDIMQPMGFRVDVELFPWSAGG [r13_926_TrROS]	3.19 ± 0.23
SAGGSAGGSAAITIEVKPGETVTITLEIEVELPPGARAADGRTFKPGEKVRVTVTLTLRVEPSAGGSAGGSA [r18_450_TrROS_Hall]	3.72 ± 0.21
SAGGSASPVTVTYTDPNSTVLESVYTPSSGIVYVKYKVGDKWYLVTVKLDPSGSSVSSVTKEPLPPSAGGSA [r15_297_JUSTAS]	1.55 ± 0.04
SAGGSAGGGGPGAPAVPTVSINIKIEEGEKVTIRNGTNKDEIIKSTKEEAEKKGKKVTVETVEGSAGGSAGG [r6_869_JUSTAS]	-0.273 ± 0.28
SWLKLPPGQKVITFQFQYPLPPGQSADDLVDNMEKELREFFGPGVKIEVNVQWDPNNGYFRVSVTIVIPKSA [r9_657_TrROS]	1.86 ± 0.057
SAGGSDKVVEIPIDIPNGYTVTIRMHPDDGTARVEVSPNMPPNRVLEKIKKIFDDNGYRILPIEIVSAGGSA [r2_497_TrROS]	1.2 ± 0.03
SAGGKILVPLEVLKEIEEAGLVDEVVENPDGPASLTVTSSKPAKLFGKPVIGFVRRGPDGKPVVEIIPSAGG [r13_163_TrMRF]	-0.215 ± 0.091
SAGGEIEVEVLEVDPETGEVLLKITFDAEPEVIDFLVSLGFDPEHISDDGDGKVTAIVRAPPDLTIASAGGS [r16_755_TrMRF]	2.21 ± 0.087
SAGGVTIEVDPGTGKVTITFPDGSSATIEVPPDERAVLFVKEGEGEVEVALVREDDPEALEKALELGSAGGS [r16_623_TrMRF]	0.811 ± 0.059

experiment: folding stability dG unfold from chymotrypsin proteolysis; higher = more stable
In short: as §1

Sequence	folding stability dG unfold [kcal/mol]
SAGGSAGGSRKIPIWIPPGMPPEQLEHFVRFIAGENGWKIKSVEIKDVDPANNWVKIDIEVKWSAGGSAGGS [r12_168_TrROS]	2.9 ± 0.093
SAGGPEIRLRVRRPVRLTRRELLPDGTWRTLPARPGYEELEITFTGPEETARRLREELERLGYEVEEVSAGG [r13_452_TrMRF]	2.84 ± 0.066
SAGMIDYIEIKPEKLPNGKYKVTITIYDSSTGTTTTYEKEMTPEEAKELAEKIKESNPDKPVKFGNLESAGG [r19_317_JUSTAS]	1.78 ± 0.089
SAGGSAGGSAGTIENVTVVGSKEFTAPGGVPTLIEYAKLPDGGTYTVTWTGDTTTTTVFPSAGGSAGGSAGG [r17_294_JUSTAS]	0.675 ± 0.14
SAGGSAGGSAGDAPPGATLTLNIELELTLKVVDPSTGELVEERKLRIPLTLTYVLDDDDLSAGGSAGGSAGG [r11_970_TrMRF]	4.24 ± 0.13
SAGGSAGGSMKTIELPNGMKITVEKDEETGVYTITITFPDGSKKTITVPKGTSLEDLVIEIKPSAGGSAGGS [r12_261_TrROS_Hall]	4.38 ± 0.21
SAGGSAGGSAGGIHIPAYEAIDFAKENADNGEPVPIEVHNPGNGKPEEREITPDDLDKISAGGSAGGSAGGS [r10_779_TrROS]	0.428 ± 0.016
SAMVTIDYETLKELYEAGDPAKVEEILKKAYEEDPNKTITVIVPEDEKYKNLVLEAAKKMGLPITITGPSAG [r14_236_JUSTAS]	3 ± 0.051
SAGGMEFTPDQFLIIVLGLPDDTLEVAIIPAGDIEKAFEELGFPLEEVDILEIVEADLTPEEAEELAESAGG [r13_850_TrMRF]	1.55 ± 0.046
SAGGSAGGSAGGSFGAVKARFKVEFVARAEDGSLYPVELEFEVEVPVLPPLPFLHPDLFSAGGSAGGSAGGS [r4_325_TrMRF]	2.35 ± 0.038
SASEDETVETTTTTTSTFTLPNGETVTLTTTTKTTEKILPETGEVVESTTTTTTVTRTDASTTTTVATSSAG [r14_333_JUSTAS]	1.22 ± 0.082
SAGGSAGGSMEEVEVFELEDGTLLVLVRVDGKEELIEIPLDDLKKLPNVKEVKIFPVKKVEKPSAGGSAGGS [r12_343_TrROS_Hall]	1.43 ± 0.057
SAGGSAGWVTFDILFPGKTIEEAKEFIEQIPPEFMNNIKKIEIDEIHPVGGWYHVTLTIEVPPGMKSAGGSA [r15_244_TrROS]	2.06 ± 0.049
SAGGSADLPPEVGSVTYSQNVPLDEIDEFIQEVIEKLGISPEEIKEIKVSRKTVPGSGVVSLTIVLSAGGSA [r15_934_JUSTAS]	1.18 ± 0.072
SAGGKKKKPERVEVTIVLPPEILEAIKAGKPLTKEEIAKLLGLPPGAEIKIERREDGYLVIKITLPKSAGGS [r16_679_TrROS_Hall]	3.19 ± 0.044
SAGSNKPIKLKAIIEKPKEKKEIEIEIDPNESIESALKKILEKLEPEWKIVIELPNGIKIEFPPSKEMYSAG [r5_77_TrMRF]	0.0227 ± 0.18
SKVEIEVERLPDGTLLVRATAEIPGIPGEKIELAVLVRLPAPERVEVRLLAAPPVETVTETRTYSEEEKKSA [r9_1009_TrROS_Hall]	1.52 ± 0.11
SAGFEFPPGQEIEFKVQYTSPMPNPDGGWGPVTETYEITIEIVPVPPIPFKDPAQAEELRQKGLPPDDLSAG [r5_624_TrROS]	1.44 ± 0.041
SAGGSAGGSAGGEMRLRISWNHPNGQPQVIEFPVGDIKEFLKKLGIDNIPPDKLTNIEPYSAGGSAGGSAGG [r7_745_TrROS]	1.37 ± 0.092
SAGTLEEALEDPSNETVEIEIEIPTGEYPLSDPEKVEELAEEKKKEIEKKLKEKGKNVKIIFKVSLKPLSAG [r5_408_JUSTAS]	0.213 ± 0.15
SAGGSAGGSAGGSLPFLKAKFTFTVRATVTVTVTDDDGKTTTEEFELETTVTVTLEPKPSAGGSAGGSAGGS [r4_162_TrROS_Hall]	3.45 ± 0.07
